Data: publication PMC10247153

Tests used:
Experiment in all cases: EMSA
[1] = biological target: H3K4me3 187 bp mononucleosome, P68431; conditions: chain shown with the change;; parent: 7.3 µM
[2] = biological target: unmodified 147 bp mononucleosome, P68431; conditions: chain shown with the change;; parent: ≥ 12.5 ± 1.2
[3] = biological target: H3K4me3 147 bp mononucleosome, P68431; conditions: chain shown with the change;; parent: 6.9 ± 0.8

B1: KDM5C^1–839, P41229-1 D87G (protein)
chain: MEPGSDDFLPPPECPVFEPSWAEFRDPLGYIAKIRPIAEKSGICKIRPPADWQPPFAVEVDNFRFTPRIQRLNELEAQTRVKLNYLGQIAKFWEIQGSSLKIPNVERRILDLYSLSKIVVEEGGYEAICKDRRWARVAQRLNYPPGKNIGSLLRSHYERIVYPYEMYQSGANLVQCNTRPFDNEEKDKEYKPHSIPLRQSVQPSKFNSYGRRAKRLQPDPEPTEEDIEKNPELKKLQIYGAGPKMMGLGLMAKDKTLRKKDKEGPECPPTVVVKEELGGDVKVESTSPKTFLESKEELSHSPEPCTKMTMRLRRNHSNAQFIESYVCRMCSRGDEDDKLLLCDGCDDNYHIFCLLPPLPEIPKGVWRCPKCVMAECKRPPEAFGFEQATREYTLQSFGEMADSFKADYFNMPVHMVPTELVEKEFWRLVNSIEEDVTVEYGADIHSKEFGSGFPVSDSKRHLTPEEEEYATSGWNLNVMPVLEQSVLCHINADISGMKVPWLYVGMVFSAFCWHIEDHWSYSINYLHWGEPKTWYGVPSLAAEHLEEVMKKLTPELFDSQPDLLHQLVTLMNPNTLMSHGVPVVRTNQCAGEFVITFPRAYHSGFNQGYNFAEAVNFCTADWLPAGRQCIEHYRRLRRYCVFSHEELICKMAACPEKLDLNLAAAVHKEMFIMVQEERRLRKALLEKGITEAEREAFELLPDDERQCIKCKTTCFLSALACYDCPDGLVCLSHINDLCKCSSSRQYLRYRYTLDELPAMLHKLKVRAESFDTWANKVRVALEVEDGRKRSLEELRALESEARERRFPNSELLQQLKNCLSEAEACVSRALGLVSGQEAG
[1]
  Kd: 1300 nM
[2]
  Kd: 1800 nM
[3]
  Kd: 2300 nM

B2: KDM5C^1–839, P41229-1 A388P (protein)
chain: MEPGSDDFLPPPECPVFEPSWAEFRDPLGYIAKIRPIAEKSGICKIRPPADWQPPFAVEVDNFRFTPRIQRLNELEAQTRVKLNYLDQIAKFWEIQGSSLKIPNVERRILDLYSLSKIVVEEGGYEAICKDRRWARVAQRLNYPPGKNIGSLLRSHYERIVYPYEMYQSGANLVQCNTRPFDNEEKDKEYKPHSIPLRQSVQPSKFNSYGRRAKRLQPDPEPTEEDIEKNPELKKLQIYGAGPKMMGLGLMAKDKTLRKKDKEGPECPPTVVVKEELGGDVKVESTSPKTFLESKEELSHSPEPCTKMTMRLRRNHSNAQFIESYVCRMCSRGDEDDKLLLCDGCDDNYHIFCLLPPLPEIPKGVWRCPKCVMAECKRPPEAFGFEQPTREYTLQSFGEMADSFKADYFNMPVHMVPTELVEKEFWRLVNSIEEDVTVEYGADIHSKEFGSGFPVSDSKRHLTPEEEEYATSGWNLNVMPVLEQSVLCHINADISGMKVPWLYVGMVFSAFCWHIEDHWSYSINYLHWGEPKTWYGVPSLAAEHLEEVMKKLTPELFDSQPDLLHQLVTLMNPNTLMSHGVPVVRTNQCAGEFVITFPRAYHSGFNQGYNFAEAVNFCTADWLPAGRQCIEHYRRLRRYCVFSHEELICKMAACPEKLDLNLAAAVHKEMFIMVQEERRLRKALLEKGITEAEREAFELLPDDERQCIKCKTTCFLSALACYDCPDGLVCLSHINDLCKCSSSRQYLRYRYTLDELPAMLHKLKVRAESFDTWANKVRVALEVEDGRKRSLEELRALESEARERRFPNSELLQQLKNCLSEAEACVSRALGLVSGQEAG
[1]
  Kd: 1800 nM
[2]
  Kd: 3100 nM
[3]
  Kd: 3700 nM
